Laboratory results taken from publication PMC8760278.
pKd: −log10 of the molar value.

Assays:
[1] = target: monomeric properdin lacking TSR domains 2 and 3 (FPΔ2,3) (human) (UniProt P27918); experiment: SEC-MALS; FPΔ2,3 with added CirpA1; S200 10/300 column in PBS, 100 uL at 1 mg/mL
[2] = target: properdin from human serum (human) (UniProt P27918)
[3] = target: monomeric properdin lacking TSR domains 2 and 3 (FPΔ2,3) (human) (UniProt P27918); experiment: MST; RED-NHS labelled FPΔ2,3 constant at 50 nM, CirpA1 2 nM to 64 uM; PBS, 0.05% Tween-20, pH 7.4; Monolith NT.115
[4] = target: properdin from human serum (human) (UniProt P27918); remark: listed apart in the source

Chain of UniProt P27918 (P27918 28-469): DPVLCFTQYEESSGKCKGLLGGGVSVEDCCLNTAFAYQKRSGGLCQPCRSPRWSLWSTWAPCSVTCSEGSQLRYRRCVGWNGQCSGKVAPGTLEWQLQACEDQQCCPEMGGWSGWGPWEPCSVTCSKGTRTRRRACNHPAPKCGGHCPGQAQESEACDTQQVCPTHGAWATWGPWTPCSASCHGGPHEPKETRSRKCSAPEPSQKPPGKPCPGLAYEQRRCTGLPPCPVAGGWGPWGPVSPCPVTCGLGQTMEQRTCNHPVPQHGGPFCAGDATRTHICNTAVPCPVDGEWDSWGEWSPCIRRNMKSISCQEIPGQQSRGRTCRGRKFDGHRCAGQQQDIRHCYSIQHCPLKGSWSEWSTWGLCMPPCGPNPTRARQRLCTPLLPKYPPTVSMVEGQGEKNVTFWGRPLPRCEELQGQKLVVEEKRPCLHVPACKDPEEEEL

Substance “CirpA1 (Complement inhibitor from R. pulchellus of the alternative pathway 1), refolded (natural protein)” has a stoichiometry N [1] of 1.
For “CirpA1, recombinant, preparation not stated for the experiment (natural protein)”, the inhibition of the alternative pathway (MAC formation), WIESLAB assay, human serum [2] was 13 nM, the pKd [3] was 7.01 and the AP haemolysis assay, human serum, rabbit erythrocytes; CirpA1 purified from insect cells [4] was 1.41e-08.
CirpA6 (natural protein) was tested, and the AP haemolysis assay, human serum, rabbit erythrocytes [4] was 1.4e-08.
